Literature values in patent US4636489A, “Modified protease inhibitors, process for their preparation, and pharmaceutical compositions prepared therefrom” (Plantorganwerk KG, priority 1983, dated 1987).

B1: eglin C: protease inhibitor from leech extracts consisting of 70 amino acid radicals, described in DE-OS No. 28 08 396 (protein, UniProt P01051 1-70, looked up)
Eglin C: TEFGSELKSFPEVVGKTVDQAREYFTLHYPQYDVYFLPEGSPVTLDLRYNRVRVFYNPGTNVVNHVPHVG
chymotrypsin
  inhibition of chymotrypsin: strongly inhibit
subtilisin
  inhibition of subtilisin: strongly inhibit
PMN-granulocyte elastase
  inhibition of PMN-granulocyte elastase: strongly inhibit
Cathepsin G
  inhibition of cathepsin G: strongly inhibit
trypsin
  inhibition of trypsin: only poor inhibitors
pancreaselastase
  inhibition of pancreaselastase: only poor inhibitors
